Measured values published in US20030078373A1.

How the values were obtained:
[1] = target: IGPS (49-252) (indoleglycerol phosphate synthase lacking residues 1-48); experiment: refolding chromatography, urea-denatured IGPS (49-252) on the fragment column, peak 2 (refolded protein)
cyclophilin A [2] = target: cyclophilin A (UniProt P62937); experiment: refolding chromatography, initially denatured cyclophilin, inactive peak
[3] = target: IGPS (49-252) (indoleglycerol phosphate synthase lacking residues 1-48); experiment: refolding chromatography, urea-denatured IGPS (49-252) on the fragment column, peak 1
cyclophilin A [4] = target: cyclophilin A (UniProt P62937); experiment: refolding chromatography, initially denatured cyclophilin, active peak
barnase = barnase (UniProt P00648); experiment: cell-based or functional assay
Sequence of barnase (P00648 48-157 limits assumed): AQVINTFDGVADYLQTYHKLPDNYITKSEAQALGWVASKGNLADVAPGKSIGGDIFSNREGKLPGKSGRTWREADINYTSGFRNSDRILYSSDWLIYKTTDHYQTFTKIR

Row | Substance | Kav [1] | Kav (cyclophilin A [2]) | Kav [3] | Kav (cyclophilin A [4]) | C, factor by which EX2 mechanism exchange is catalysed by GroEL fragment (globally exchanging amide protons of barnase) (barnase) [fold] | C, factor by which EX2 mechanism exchange is catalysed by GroEL fragment (locally exchanging amide protons of barnase) (barnase) [fold] | C, factor by which EX2 mechanism exchange is catalysed by GroEL fragment (mixed amide protons of barnase) (barnase) [fold]
1 | ht-GroEL 191-345 immobilised on Ni-NTA agarose | 1.7 | 0.38 | 1 | 1.43 |  |  | 
2 | GroEL 191-345 |  |  |  |  | 10 | 5 | 1
